These results are taken from patent US20160208003A1 (AFFITECH RESEARCH, published 2016).

Experiment [1] deals with T1, human CC chemokine receptor 4 (CCR4) (human, UniProt P51679 1-360).
T1 construct: whole, on cells; Always presented on cells; also called CD194; human CCR4
T1 sequence (looked up): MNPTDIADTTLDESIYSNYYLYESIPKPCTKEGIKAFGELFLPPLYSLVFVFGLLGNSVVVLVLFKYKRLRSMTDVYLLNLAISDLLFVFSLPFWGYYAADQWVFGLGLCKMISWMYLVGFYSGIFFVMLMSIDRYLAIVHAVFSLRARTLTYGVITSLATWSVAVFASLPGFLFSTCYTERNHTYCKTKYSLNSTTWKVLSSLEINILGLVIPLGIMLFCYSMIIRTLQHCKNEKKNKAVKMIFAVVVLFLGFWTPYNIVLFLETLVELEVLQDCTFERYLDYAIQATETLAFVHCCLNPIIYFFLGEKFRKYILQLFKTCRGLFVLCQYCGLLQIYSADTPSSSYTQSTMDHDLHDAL
Nature of the experiment: flow cytometry, saturation titration of scFv cross-linked via myc-tag on DT-40 CCR4+ cells; one site-specific binding fit. The method, then:
DT 40 and CCRF-CEM cells were cultured as described in Example 2. The DT40 CCR4+ and DT40 (CCR4−) cells were harvested from culture flasks, washed 2 times with PBS (400×g, 5 min, 4° C.) and resuspended in PBS containing 0.2% BSA and 0.09% NaN₃. 1×10⁵ cells per well were aliquoted into V-shaped 96-well plates (Greiner Bio-One, Frikenhausen, Germany). […] […] Cells were washed, resuspended in 200 μl PBS with 0.2% BSA and 0.09% NaN₃, and transferred to a U-shaped 96 well Costar (Corning, Schiphol-Rijik, The Netherlands) plate for flow cytometry using an Easy Cyte device (Guava Technologies, Hayward, Calif., USA).

Experiment [2] has as its target T1, human CC chemokine receptor 4 (CCR4). Nature of the experiment: IgG1 expressed from pLNO, purified; method not told there.
For experiment [3] the target is unchanged. As to the kind of experiment: cell-based or functional assay.
The target is the same in experiment [4]. Nature of the experiment: flow cytometry, IgG titration on DT-40 CCR4+ cells, anti-human-FITC, MFI [a]. The procedure:
The quality of the specific binding to DT40+ cells was tested for 9E1 D and 9E10J in scFv or IgG format in a titration experiment.
Alternatively, 9E1D and 9E10J were converted into the full-length human IgG1 and tested for cell binding. The DT40+CCR4 and DT40 cells were harvested from culture flasks, washed 2 times with PBS (400×g, 5 min, 4° C.) and resuspended in PBS containing 0.2% BSA and 0.09% NaN₃. 1×10⁵ cells per well were aliquoted into V-shaped 96-well plates (Greiner Bio-One, Frikenhausen, Germany). Cells were centrifuged (400×g, 5 min, 4° C.) and resuspended in a 1:5 dilution series of IgG starting on 10 μg/ml (50 μl/well). After 1 hour incubation at 4° C., the cells were washed three times with 150 μl PBS with 0.2% BSA and 0.09% NaN₃ and stained with 2.5 μg/ml RPE conjugated goat anti-human IgG (AbDSerotec, Düsseldorf, Germany) or 2.5 μg/ml anti human IgG Fc (goat polyclonal aff. pur) FITC (Sigma Aldrich) for 45 minutes at 4° C. Cells were washed, resuspended in 200 μl PBS with 0.2% BSA and 0.09% NaN₃, and transferred to a U-shaped 96 well Costar (Corning, Schiphol-Rijik, The Netherlands) plate for flow cytometry using an Easy Cyte device (Guava Technologies, Hayward, Calif., USA) or FACS Canto II flow cytometer (BD Biosciences, Heidelberg, Germany).

Experiment [5] has the same target. As to the kind of experiment: competition flow cytometry on CCRF-CEM cells: unlabelled competitor against ca. 20 nM biotinylated MDC, streptavidin-PE [d]. The procedure: The competition binding assays were performed with biotinylated MDC or biotinylated TARC on DT-40-CCR4+ and CCRF-CEM cells. DT40 and CCRF-CEM cells were cultured as described in Example 2. TARC and MDC were biotinylated using standard procedures. The biotinylation process causes some losses, so the concentrations of biotinylated MDC and TARC recited herein are approximate.
The cells were harvested from culture flasks, washed 2 times with PBS (400×g, 5 min, 4° C.) and resuspended in PBS containing 0.2% BSA and 0.09% NaN3. 1×10^5 cells per well were aliquoted into V-shaped 96-well plates (Greiner Bio-One, Frikenhausen, Germany). Cells were centrifuged (400×g, 5 min, 4° C.) and resuspended in 50 μl IgG, single chain or unlabeled ligand (1:10 dilution series starting on 100/500/26, 4 μg/ml) mixed with a fixed concentration of biotinylated ligand (10 or 20 nM, see legend to FIG. 24). The cells were incubated for 2 hours at 4° C. and mixed with a pipette every 45 min. The cells were washed three times with 150 μl PBS with 0.2% BSA and 0.09% NaN3 and stained with 3 μg/ml streptavidin PE (BD Biosciences) for 45 minutes at 4° C. […] Apparent binding affinities (KD) were calculated according to the following equation derived from previously described methods (Kipriyanov et al, 1997b; Schodin & Kranz, 1993): […]

B1: 9E1D scFv (scFv)
scFv: QVQLVQSGAEVKKPGSSVKVSCKASGGTFSNYAISWVRQAPGQGLEWMGGIIPIFGTANYAQKFQGRVTITADESTSTAYMELSSLRSEDTAVYYCARRGGSYFDYWGQGTLVTVSSKLSGSASAPKLEEGEFSEARVQPVLTQPPSASGTPGQRVTISCSGGGSNIGRRFVNWYQQLPGTAPKLLIYRNNQRPSGVPDRFSGSKSGTSASLVISGLRSEDEADYYCAAWDDSLSGWVFGGGTKLTVLAAAGSEQKLISEEDLNSHHHHHH
notes: also called scFv 9E1D
Consider B1, for which the Kd in experiment [1] is 5.22 nM.

B2: 11F IgG (full length human IgG1, kappa) (antibody, V domains shown)
VH: not shown
VL: ETTLTQSPGTLSLSPGEGVTLSCRASQSVNRRYLAWYQQKPGQAPRLLIYGASSRATGIPDRFSGSGSGTDFTLTISRLEPEDFAVYYCQQYGSSPLTFGGGTKVEIKR
In the case of B2, the binding result in experiment [2] was “binds”.

B3: defucosylated 9E10J IgG (antibody, V domains shown)
VH: QVQLVQSGAEVKKPGSSVKVSCKASGGTFSSYAISWVRQAPGQGLEWMGGIIPIFGTANYAQKFQGRVTMTRDTSTSTVYMELSSLRSEDTAVYYCARRGGSYFDYWGQGTLVTVSS
VL: SYVLTQPPSASGTPGQSVTISCSGSTSNIGSHYVFWYQQLPGTAPRLLIYRNHQRPSGVPDRLSGSKSGTSASLAISGLRSEDEADYYCAVWDDTLSGWVFGGGTKLTVLG
modifications: Fc glycans defucosylated (IgG produced in the presence of Kifunensine, 100 ng/ml)
B3: the “ADCC of CCRF-CEM cells, EC50 (mean, N=4)” value in experiment [3] was found to be 2.1 ng/mL.

B4: 9E1D IgG (full length human IgG1, lambda) (antibody, V domains shown)
VH: QVQLVQSGAEVKKPGSSVKVSCKASGGTFSNYAISWVRQAPGQGLEWMGGIIPIFGTANYAQKFQGRVTITADESTSTAYMELSSLRSEDTAVYYCARRGGSYFDYWGQGTLVTVSS
VL: QPVLTQPPSASGTPGQRVTISCSGGGSNIGRRFVNWYQQLPGTAPKLLIYRNNQRPSGVPDRFSGSKSGTSASLVISGLRSEDEADYYCAAWDDSLSGWVFGGGTKLTVLG
B4: the binding result in experiment [4] is “binds”.

B5: 9E scFv (scFv)
scFv: QVQLVQSGAEVKKPGSSVKVSCKASGGTFSNYAISWVRQAPGQGLEWMGGIIPIFGTANYAQKFQGRVTITADESTSTAYMELSSLRSEDTAVYYCARRGGSYFDYWGQGTLVTVSSKLSGSASAPKLEEGEFSEARVSYVLTQPPSASGTPGQSVTISCSGSTSNIGSHYVFWYQQLPGTAPRLLIYRNHQRPSGVPDRLSGSKSGTSASLAISGLRSEDEADYYCAVWDDTLSGWVFGGGTKLTVLAAAGSEQKLISEEDLNSHHHHHH
notes: For staining the scFv was pre-incubated with an anti-c-myc antibody with human Fc (cross-linked, dimer-like); also called scFv 9E
As to B5, the Kd in experiment [1] turned out to be 4.95 nM.

B6: 9E10J scFv (scFv)
scFv: QVQLVQSGAEVKKPGSSVKVSCKASGGTFSSYAISWVRQAPGQGLEWMGGIIPIFGTANYAQKFQGRVTMTRDTSTSTVYMELSSLRSEDTAVYYCARRGGSYFDYWGQGTLVTVSSKLSGSASAPKLEEGEFSEARVSYVLTQPPSASGTPGQSVTISCSGSTSNIGSHYVFWYQQLPGTAPRLLIYRNHQRPSGVPDRLSGSKSGTSASLAISGLRSEDEADYYCAVWDDTLSGWVFGGGTKLTVLAAAGSEQKLISEEDLNSHHHHHH
notes: also called scFv 9E10J
Regarding B6, the Kd in experiment [1] stood at 1.17 nM. Further, in experiment [5], the “IC50 (read off the curve)” value was about 200 nM.
